US20210403575A1 (SHANGHAI YICHEN BIOMED, published 2021)

Molecular target: T1, hEGFR-hIGg1Fc (SinoBiological) (human, UniProt P00533 25-645)
T1 construct: Bought reagent; also called human EGFR; human EGFR antigen; not shown: human IgG1 Fc
Test: ELISA, coated hEGFR-hIgG1Fc

B1: aPDL1ScFv-L1-aEGFRL (bispecific antibody)
heavy: QVQLQESGPGLVKPSETLSLTCTVSGGSVSSGDYYWTWIRQSPGKGLEWIGHIYYSGNTNYNPSLKSRLTISIDTSKTQFSLKLSSVTAADTAIYYCVRDRVTGAFDIWGQGTMVTVSSASTKGPSVFPLAPSSKSTSGGTAALGCLVKDYFPEPVTVSWNSGALTSGVHTFPAVLQSSGLYSLSSVVTVPSSSLGTQTYICNVNHKPSNTKVDKKVEPKSCDKTHTCPPCPAPPVAGPSVFLFPPKPKDTLMISRTPEVTCVVVDVSHEDPEVKFNWYVDGVEVHNAKTKPREEQYNSTYRVVSVLTVLHQDWLNGKEYKCKVSNKGLPSSIEKTISKAKGQPREPQVYTLPPSRDELTKNQVSLTCLVKGFYPSDIAVEWESNGQPENNYKTTPPVLDSDGSFFLYSKLTVDKSRWQQGNVFSCSVMHEALHNHYTQKSLSLSPGK
light: not shown
notes: also called aPDL1 scfv-aEGFR fusion
  binding result: binds

B2: aPDL1ScFv-L2-aEGFRL (bispecific antibody)
heavy: B1 heavy
light: not shown
notes: as for B1
  binding result: binds
